Results: patent US20150196533A1, “METHOD FOR CONCURRENT TREATMENT OF PAIN AND DEPRESSION” (The General Hospital Corporation, priority 2012, published 2015)

How the values were obtained:
naive rats = assay: Intra-hippocampal microinjection in naive rats: nociceptive and depressive behavior; assay type: in vivo, rat; conditions: 0.1 μg once daily x 7 d into the left hippocampus of naive rats
Experimental: Under brief isoflurane anesthesia, a guide cannula (26 gauge, Plasticsone) was implanted just above the hippocampus (AP: −3.6 mm; left: +2.0 mm from Bregma; depth: −4.0 mm from skin) (Paxinos, G., and Watson, C. 1998. The rat brain in stertaxic coordinates. New York: Academic Press). An injection needle (33 gauge, Plasticsone) was inserted through the guide cannula and drug solution or vehicle (0.5 μl) was slowly injected over 5 min using a Hamilton syringe. Locations of the cannula placement were confirmed at the time of tissue harvest (data not shown).
Animals were habituated to a test setting (30-min session) for three consecutive days. Thermal withdrawal threshold was assessed using the Hargreaves' apparatus and method (Hargreaves, K., et al., 1988. A new and sensitive method for measuring thermal nociception in cutaneous hyperalgesia. Pain 32:77-88). Mechanical withdrawal threshold was assessed using von Frey filaments (Tal, M., and Bennett, G. J. 1994. Extra-territorial pain in rats with a peripheral mononeuropathy: mechano-hyperalgesia and mechano-allodynia in the territory of an uninjured nerve. Pain 57:375-382).
FST was performed according to the original method by Porsolt et al (Porsolt, R. D., Le, P. M., and Jalfre, M. 1977. Depression: a new animal model sensitive to antidepressant treatments. Nature 266:730-732). The total duration of immobility (non-swimming) within a 5-min session was recorded as immobility scores (in seconds) and compared among groups.

[1] = test system: IDO1 expression in Neuro2a cells; assay: IL-6 exposure of cultured Neuro2a cells: IDO1 expression and activity; assay type: cell-based; conditions: 0.5 ng/ml for 24 hours
Experimental: Neuro2a cells were cultured in minimal essential (EAGLE) medium (Invitrogen) supplemented with 10% fetal bovine serum, 100 U/ml penicillin, and 100 μg/ml streptomycin (Invitrogen) in a humidified atmosphere of 5% CO2 and 95% air at 37° C. Cells were treated with 0.5 ng/ml IL-6 or vehicle and collected 24 hours later for assays (74).
Rats were anesthetized with pentobarbital (50 mg/kg, i.p.) and perfused transcardially with cold 0.9% saline (pH 7.4±0.1) followed by cold 4% paraformaldehyde in a phosphate buffer (PB, 0.1M, pH 7.4±0.1). Brains were removed and placed in the same fixative for post-fixation at 4° C. for 6 hours. For cryoprotection, the samples were kept with cold 30% sucrose in phosphate buffer saline (PBS) at 4° C. until samples sank to the bottom. Coronal brain sections (30 μm) were cut using a cryostat and then floated in PBS. Sections were blocked with 5% normal donkey serum in 0.3% Triton X-100/PBS for 1 hour at room temperature. Free floating sections were incubated overnight at 4° C. on a rocker with one of the following primary antibodies: 1:100, IDO1 rabbit polyclonal (Santa Cruz Biotechnology Inc.); 1:1,000, NeuN mouse monoclonal (Chemicon); 1:1,000, GFAP mouse monoclonal (BD Bioscience Pharmingen); 1:1,000, Iba-1 mouse monoclonal (Abcam). Sections were then washed with PBS three times and incubated with 1:300 FITC- or cyanine3-conjugated secondary antibody (JacksonlnununoResearch Laboratories Inc) for 1 hour at room temperature. Blue fluorescent DAPI (1:300; Invitrogen) was used to stain the nucleus of fixed cultured Neuro2a cells for 15 minutes.
Rats were sacrificed under pentobarbital anesthesia. The hippocampus was separated from the brain and immediately stored on dry ice and kept at −80° C. until use. Samples were homogenized in a lysis buffer with SDS containing a cocktail of proteinase inhibitors (Roche). Samples were separated on an SDS-PAGE gel (4%-15% gradient gel; Bio-Rad) and transferred to polyvinylidene difluoride filter (PVDF) membranes (Millipore). Membranes were blocked with 5% nonfat dried milk for 1 hour at room temperature and incubated over night at 4° C. on a rocker with one of following primary antibody: 1:200 IDO1 (Santa Cruz Biotechnology Inc.; rabbit polyclonal antibody), 1:200 IDO1 (Novius Biologicals; rabbit polyclonal antibody), 1:500 JAK2 (Santa Cruz Biotechnology Inc.; rabbit polyclonal antibody), 1:1,000 STAT3 (Millipore; rabbit polyclonal antibody), 1:5,000 p-STAT3 (Abcam; rabbit monoclonal antibody). After membranes were washed with PBS×4, membranes were incubated with 1:8,000 HRP conjugated secondary antibody (Amersham, Biosciences) for 1 hour at room temperature on a rocker. The membranes were washed with PBS×4 and blots were visualized in enhanced Chemiluminescent (ECL) solution (Pierce) for 5 minutes and exposed to hyperfilms (Kodak) for 15 minutes. Blots were again incubated in a Stripping buffer (Pierce) for 15 minutes at room temperature on a rocker and reprobed with 1:12,000 anti-β-actin antibody (Abeam Inc.) as a loading control. Western blots were made in triplicates. Band density was measured and normalized against a loading control band.
Total RNA was isolated from hippocampal samples using TRIzol reagent (Invitrogen). Four μg of total RNA was used to synthesize the first strand cDNA using SuperScript III kit (Invitrogen). Four μl of cDNA was put into 20 μl vessel with 1 μl of 20× TaqMan Gene Expression Assay. Taqman Gene Expression Assays (Applied Biosystems) containing primers and a Taqman probe were used to quantify each gene of interest. The genes examined were IL-6 (Rn01410330 m1, M26744.1) and IDO1 (Rn00576778 m1, AF312699.1) for rats and IL-6 (Mm00446190 m1, X54542.1) and IDO1 (Mm00492586 m1, M69109.1) for mice. The reaction was performed in duplicate with the following conditions: denaturing at 95° C. for 30 s, annealing at 60° C. for 2 min, extension at 68° C. for 2 min for 40 cycles using a 7300 Real-Time PCR System (Applied Biosystems). […]

B1: IL-6: exogenous IL-6 (recombinant rat IL-6), proinflammatory cytokine (protein, UniProt P20607 25-211, looked up)
Interleukin-6: FPTSQVRRGDFTEDTTHNRPVYTTSQVGGLITYVLREILEMRKELCNGNSDCMNSDDALSENNLKLPEIQRNDGCFQTGYNQEICLLKICSGLLEFRFYLEFVKNNLQDNKKDKARVIQSNTETLVHIFKQEIKDSYKIVLPTPTSNALLMEKLESQKEWLRTKTIQLILKALEEFLKVTMRSTRQT
depressive behavior in forced swimming test (FIG. 9G) (naive rats; P<0.001): induced depressive behavior in forced swimming test
thermal hyperalgesia on the right hindpaw (FIG. 9F) (naive rats; P<0.01): induced
mechanical allodynia on the right hindpaw (FIG. 9E) (naive rats; P<0.05 vs vehicle): induced
IDO1 immunoreactivity (FIG. 8A) [1]: increased
IDO activity [KYN/TRP ratio and 5-HT/TRP ratio] [1]: increased
kynurenine/tryptophan ratio (HPLC; FIG. 8D) ([1]; P<0.05): increased kynurenine/tryptophan ratio
serotonin/tryptophan ratio (HPLC; FIG. 8E) ([1]; P<0.05): decreased serotonin/tryptophan ratio
IDO1 mRNA expression (real-time PCR; FIG. 8B) ([1]; P<0.05 vs vehicle): significantly increased
IDO1 protein expression (Western blot; FIG. 8C) ([1]; P<0.05 vs vehicle): significantly increased
